Like-named read-outs stand apart in the source and are kept apart here.
B1: aldehyde dehydrogenase 4 (Ald4) (enzyme, S. cerevisiae (endogenous in SK1 cells), UniProt P46367 25-519, looked up)
chain: SHLPMTVPIKLPNGLEYEQPTGLFINNKFVPSKQNKTFEVINPSTEEEICHIYEGREDDVEEAVQAADRAFSNGSWNGIDPIDRGKALYRLAELIEQDKDVIASIETLDNGKAISSSRGDVDLVINYLKSSAGFADKIDGRMIDTGRTHFSYTKRQPLGVCGQIIPWNFPLLMWAWKIAPALVTGNTVVLKTAESTPLSALYVSKYIPQAGIPPGVINIVSGFGKIVGEAITNHPKIKKVAFTGSTATGRHIYQSAAAGLKKVTLELGGKSPNIVFADAELKKAVQNIILGIYYNSGEVCCAGSRVYVEESIYDKFIEEFKAASESIKVGDPFDESTFQGAQTSQMQLNKILKYVDIGKNEGATLITGGERLGSKGYFIKPTVFGDVKEDMRIVKEEIFGPVVTVTKFKSADEVINMANDSEYGLAAGIHTSNINTALKVADRVNAGTVWINTYNDFHHAVPFGGFNASGLGREMSVDALQNYLQVKAVRAKLDE
B2: acetyl-coenzyme A synthetase 1 (Acs1) (enzyme, S. cerevisiae (endogenous in SK1 cells), UniProt Q01574 1-713, looked up)
chain: MSPSAVQSSKLEEQSSEIDKLKAKMSQSAATAQQKKEHEYEHLTSVKIVPQRPISDRLQPAIATHYSPHLDGLQDYQRLHKESIEDPAKFFGSKATQFLNWSKPFDKVFIPDPKTGRPSFQNNAWFLNGQLNACYNCVDRHALKTPNKKAIIFEGDEPGQGYSITYKELLEEVCQVAQVLTYSMGVRKGDTVAVYMPMVPEAIITLLAISRIGAIHSVVFAGFSSNSLRDRINDGDSKVVITTDESNRGGKVIETKRIVDDALRETPGVRHVLVYRKTNNPSVAFHAPRDLDWATEKKKYKTYYPCTPVDSEDPLFLLYTSGSTGAPKGVQHSTAGYLLGALLTMRYTFDTHQEDVFFTAGDIGWITGHTYVVYGPLLYGCATLVFEGTPAYPNYSRYWDIIDEHKVTQFYVAPTALRLLKRAGDSYIENHSLKSLRCLGSVGEPIAAEVWEWYSEKIGKNEIPIVDTYWQTESGSHLVTPLAGGVTPMKPGSASFPFFGIDAVVLDPNTGEELNTSHAEGVLAVKAAWPSFARTIWKNHDRYLDTYLNPYPGYYFTGDGAAKDKDGYIWILGRVDDVVNVSGHRLSTAEIEAAIIEDPIVAECAVVGFNDDLTGQAVAAFVVLKNKSSWSTATDDELQDIKKHLVFTVRKDIGPFAAPKLIILVDDLPKTRSGKIMRRILRKILAGESDQLGDVSTLSNPGIVRHLIDSVKL

Assays:
cryo-EM structure [1] = biological target: the molecule itself; experiment: cryo-EM structure
cryo-EM structure [2] = biological target: the molecule itself; experiment: cryo-EM structure; remark: listed apart in the source

Protein	stoichiometry N (cryo-EM structure [1])	stoichiometry N (cryo-EM structure [2])
B1	4	
B2		3

Reference: publication doi:10.1101/2024.03.26.586525 (bioRxiv, 2024)
